Laboratory results taken from patent US20220235103A1 (Molecular Partners, published 2022).
Where two headings read alike, the source gives them in different places.

What was measured:
S ecto U [1] = target: T1, S ecto U (SARS-CoV-2, UniProt P0DTC2 16-1213)
S ecto U [2] = target: T1, S ecto U; test: SPR, ProteOn XPR36, fitted curves (FIG. 9c)
[3] = target: T2, SARS-CoV-2 (COVID-19) S protein RBD (cat. SPD-C5255, lot. BV3539b-203FF1-203K) (SARS-CoV-2, UniProt P0DTC2 319-537)
bio-S ecto Sino [4] = target: T3, bio-S ecto Sino (SARS-CoV-2, UniProt P0DTC2 16-1213)
bio-S ecto Sino [5] = target: T3, bio-S ecto Sino; remark: listed apart in the source
bio-RBD Fc Acro = bio-RBD Fc Acro (SARS-CoV-2); test: SPR, single trace
bio-S ecto Sino [6] = target: T3, bio-S ecto Sino; remark: listed apart in the source
[7] = target: T2, SARS-CoV-2 (COVID-19) S protein RBD …; remark: listed apart in the source
bio-S ecto Sino [8] = target: T3, bio-S ecto Sino; test: single trace
bio-S1 Acro [9] = target: T4, bio-S1 Acro (SARS-CoV-2, UniProt P0DTC2 16-685); test: SPR, single trace
bio-S1 Acro [10] = target: T4, bio-S1 Acro; test: SPR

B1: vS07_14G03 (designed binder)
chain: MRGSHHHHHHGSDLGQKLLHAAQYGQDDEVRILLAAGADVNAKDKQGNTPLHIAAFHGHLEIVEVLLKAGADVNAKDQWGLTPLHLAAAWGHLEIVEVLLKAGADVNAQDNYGQTPADLAAESGHEDIAEVLQKAA
notes: also called S2a
- koff (S ecto U [1]): 0.00352 s⁻¹
- kon (S ecto U [1]): 4.49e+06 M⁻¹ s⁻¹
- Kd (S ecto U [2]): 790 pM

B2: ALE033 (designed binder)
chain: MRGSHHHHHHGSDLGKKLLEAARAGQDDEVRELLKAGADVNAKDYFSHTPLHLAARNGHLKIVEVLLKAGADVNAKDFAGKTPLHLAANEGHLEIVEVLLKAGADVNAQDIFGKTPADIAADAGHEDIAEVLQKAAGSPTPTPTTPTPTPTTPTPTPTGSDLGKKLLEAARAGQDDEVRELLKAGADVNAKDYFSHTPLHLAARNGHLKIVEVLLKAGADVNAKDFAGKTPLHLAANEGHLEIVEVLLKAGADVNAQDIFGKTPADIAADAGHEDIAEVLQKAAGSPTPTPTTPTPTPTTPTPTPTGSDLGKKLLQAARAGQLDEVRELLKAGADVNAKDREGITPLHLAAQHGHLEIVEVLLKAGADVNAKDVWGRTPLHLAAWQGHLEIVEVLLKAGADVNAKDLAGATPLHVAALYGHLEIVEVLLKAGADVNAQDKSGKTPADLAARAGHQDIAEVLQKAAGSPTPTPTTPTPTPTTPTPTPTGSDLGKKLLQAARAGQLDEVRELLKAGADVNAKDREGKTPLHVAAQEGHLEIVEVLLKAGADVNAKDVWGRTPLHLAAWIGHLEIVEVLLKAGADVNAKDVSGATPLHAAALHGHLEIVEVLLNAGADVNAQDKSGKTPADLAARAGHQDIAEVLQKAAGSPTPTPTTPTPTPTTPTPTPTGSDLGKKLLQAARAGQLDEVRELLKAGADVNAKDREGITPLHLAAQHGHLEIVEVLLKAGADVNAKDVWGRTPLHLAAWQGHLEIVEVLLKAGADVNAKDLAGATPLHVAALYGHLEIVEVLLKAGADVNAQDKSGKTPADLAARAGHQDIAEVLQKAA
- kon [3]: 1.54e+06 M⁻¹ s⁻¹

B3: vS07_23E04 (designed binder)
chain: MRGSHHHHHHGSDLGKKLLQAARAGQLDEVRELLKAGADVNAKDQEGITPLHVAAHQGHLEIVEVLLKAGADVNAKDVWGRTPLHLAAWRGHLEIVEVLLKAGADVNAKDHAGATPLHAAALSGHLEIVEVLLKAGADVNAQDKSGKTPADLAARAGHQDIAEVLQKAA
notes: also called R3c
- Kd (bio-S ecto Sino [4]): 90 pM
- koff (bio-S ecto Sino [5]): 0.000234 s⁻¹
- kon (bio-S ecto Sino [5]): 2.59e+06 M⁻¹ s⁻¹
- binding result (bio-RBD Fc Acro): binds

B4: vS07_06F12 (designed binder)
chain: MRGSHHHHHHGSDLGKKLLQAARAGQLDEVRELLKAGADVNAKDREGWTPLHLAAHQGHLEIVEVLLKAGADVNAKDVFGRTPLHLAAWVGHLEIVEVLLKAGADVNAKDVSGATPLHPAAIYGHLEIVEVLLKAGADVNAQDKSGKTPADLAARAGHQDIAEVLQKAA
notes: also called R1a
- Kd (bio-S ecto Sino [4]): 250 pM
- koff (bio-S ecto Sino [6]): 0.000243 s⁻¹
- kon (bio-S ecto Sino [6]): 963000 M⁻¹ s⁻¹
- binding result (bio-RBD Fc Acro): binds

B5: vS07_12C06 (designed binder)
chain: MRGSHHHHHHGSDLGKKLLQAARAGQLDEVRELLKAGADVNAKDREGKTPLHVAAQEGHLEIVEVLLKAGADVNAKDVWGRTPLHLAAWIGHLEIVEVLLKAGADVNAKDVSGATPLHAAALHGHLEIVEVLLNAGADVNAQDKSGKTPADLAARAGHQDIAEVLQKAA
notes: also called R1b; Rb1
- Kd (bio-S ecto Sino [4]): 21 pM
- koff (bio-S ecto Sino [6]): 2.64e-05 s⁻¹
- kon (bio-S ecto Sino [6]): 1.26e+06 M⁻¹ s⁻¹
- binding result (bio-RBD Fc Acro): binds

B6: vS07_29B10 (designed binder)
chain: MRGSHHHHHHGSDLGKKLLQAARAGQLDEVRELLKAGADVNAKDREGITPLHLAAQHGHLEIVEVLLKAGADVNAKDVWGRTPLHLAAWQGHLEIVEVLLKAGADVNAKDLAGATPLHVAALYGHLEIVEVLLKAGADVNAQDKSGKTPADLAARAGHQDIAEVLQKAA
notes: also called R3b
- Kd (bio-S ecto Sino [4]): 81 pM
- koff (bio-S ecto Sino [5]): 0.000148 s⁻¹
- kon (bio-S ecto Sino [5]): 1.82e+06 M⁻¹ s⁻¹
- binding result (bio-RBD Fc Acro): binds

B7: vS07_22E12 (designed binder)
chain: MRGSHHHHHHGSDLGKKLLQAARAGQLDEVRELLKAGADVNAKDKIGVTPLHIAAEVGHLEIVEVLLKAGADVNAKDVWGRTPLHLAAWSGHLEIVEVLVKAGADVNAKDIAGATPLHAAALFGHLEIVEVLLKVGADVNAQDKSGKTPADLAARAGHQDIAEVLQKAA
notes: also called R3a
- Kd (bio-S ecto Sino [4]): 240 pM
- koff (bio-S ecto Sino [5]): 0.000308 s⁻¹
- kon (bio-S ecto Sino [5]): 1.3e+06 M⁻¹ s⁻¹
- binding result (bio-RBD Fc Acro): binds

B8: ALE030 (designed binder)
chain: MRGSHHHHHHGSDLGKKLLEAARAGQDDEVRELLKAGADVNAKDYFSHTPLHLAARNGHLKIVEVLLKAGADVNAKDFAGKTPLHLAANEGHLEIVEVLLKAGADVNAQDIFGKTPADIAADAGHEDIAEVLQKAAGSPTPTPTTPTPTPTTPTPTPTGSDLGKKLLEAARAGQDDEVRELLKAGADVNAKDYFSHTPLHLAARNGHLKIVEVLLKAGADVNAKDFAGKTPLHLAANEGHLEIVEVLLKAGADVNAQDIFGKTPADIAADAGHEDIAEVLQKAAGSPTPTPTTPTPTPTTPTPTPTGSDLGKKLLQAARAGQLDEVRELLKAGADVNAKDREGITPLHLAAQHGHLEIVEVLLKAGADVNAKDVWGRTPLHLAAWQGHLEIVEVLLKAGADVNAKDLAGATPLHVAALYGHLEIVEVLLKAGADVNAQDKSGKTPADLAARAGHQDIAEVLQKAAGSPTPTPTTPTPTPTTPTPTPTGSDLGNKLLDAAWVGQDDEVRILLAAGADVNAKDWQGETPLHLAATKGHLEIVEVLLKAGADVNAKDVVGYTPLHVAASQGHLEIVEVLLKAGADVNAQDVHGYTPADLAAQAGHEDIAEVLQKAAGSPTPTPTTPTPTPTTPTPTPTGSDLGKKLLQAARAGQLDEVRELLKAGADVNAKDREGKTPLHVAAQEGHLEIVEVLLKAGADVNAKDVWGRTPLHLAAWIGHLEIVEVLLKAGADVNAKDVSGATPLHAAALHGHLEIVEVLLNAGADVNAQDKSGKTPADLAARAGHQDIAEVLQKAA
- Kd [7]: 0.142 pM
- koff [7]: 1.15e-07 s⁻¹
- kon [7]: 810000 M⁻¹ s⁻¹

B9: vS07_07F02 (designed binder)
chain: MRGSHHHHHHGSDLGLKLLTAAKQGQDDEVRILLAAGADVNAKDYRGLTPLHYAAAIGHLEIVEVLLKAGADVNAKDQYGATPLHVAAYIGHLEIVEVLLKAGADVNAQDFSGSTPADLAAEEGHEDIAEVLQKAA
notes: also called RN1
- Kd (bio-S ecto Sino [8]): 14000 pM
- binding result (bio-RBD Fc Acro): binds

B10: vS07_19G10 (designed binder)
chain: MRGSHHHHHHGSDLGNKLLDAAWVGQDDEVRILLAAGADVNAKDWQGETPLHLAATKGHLEIVEVLLKAGADVNAKDVVGYTPLHVAASQGHLEIVEVLLKAGADVNAQDVHGYTPADLAAQAGHEDIAEVLQKAA
notes: also called R2a
- Kd (bio-S ecto Sino [4]): 260 pM
- koff (bio-S ecto Sino [6]): 0.000179 s⁻¹
- kon (bio-S ecto Sino [6]): 693000 M⁻¹ s⁻¹
- binding result (bio-RBD Fc Acro): binds

B11: vS07_26C03 (designed binder)
chain: MRGSHHHHHHGSDLGWKLLWAAQVGQDDEVRILLAAGADVNAKDDLGWTPLHIAAWVGHLEIVEVLLKAGADVNAKDFTGRTPLHHAATEGHLEIVKVLLKAGADVNAQDDVGHTPADLAALWGHEDIAEVLQKAA
notes: also called RN2
- Kd (bio-S ecto Sino [4]): 23000 pM
- binding result (bio-RBD Fc Acro): binds

B12: vS07_08F10 (designed binder)
chain: MRGSHHHHHHGSDLGHKLLLAAQAGQDDEVRILLAAGADVNAKDVFGQTPLHVAAVAGHLEIVEVLLKAGADVNAKDSIGYTPLHHAARVGHLEIVEVLLKAGADVNAQDWIGITPADLAAFEGHEDIAEVLQKAA
notes: also called S1a
- koff (S ecto U [1]): 0.00086 s⁻¹
- kon (S ecto U [1]): 695000 M⁻¹ s⁻¹
- Kd (bio-S1 Acro [9]): 20000 pM
- Kd (S ecto U [2]): 1200 pM

B13: vS07_08F10v27 (designed binder)
chain: MRGSHHHHHHGSDLGKKLLLAARAGQLDEVRILLKAGADVNAKDVFGQTPLHVAAVAGHLEIVEVLLKAGADVNAKDSIGYTPLHHAARVGHLEIVEVLLKAGADVNAKDWIGITPADLAAFEGHQDIAEVLQKAA
- binding result (bio-S1 Acro [10]): binds

B14: vS07_08F10v47 (designed binder)
chain: MRGSHHHHHHGSDLGKKLLLAARAGQLDEVRILLKAGADVNAKDVFGQTPLHTAAVAGHLEIVEVLLKAGADVNAKDKVGYTPLHLAAQSGHLEIVEVLLKAGADVNAKDVVGVTPADLAAFEGHQDIAEVLQKAA
- binding result (bio-S1 Acro [10]): binds
